Assay: soluble on expression in E. coli; label from the status in PepcDB or PDB records

Sequence | soluble on expression in E. coli
MNQLNGQQLNDIILVLQNFTHSTLKKDLISLNAFKKAELTCGILRIELSMPFVWQTGFEALQAEVEQQLKQITGASGVKWVLNYQIATLKRANNHPAVNGVKNIIAVTSGKGGVGKSTTSINLALALQAQGAKVGILDADIYGPSIPHMLGAQDQRPTSPDNRHITPIEAYGIQSNSIGYLMAEDNATIWRGPMASSALSQLLNETWWTDLDYLVIDMPPGTGDIQLTLSQQIPVTGAVVVTTPQDIALLDAIKGIAMFQKVAVPVLGVIENMSVHICQNCGHQEAIFGTGGASKVAEKYNTQLLGQLPLHIRLRQDLDAGTPTVVADPTHEISQAYLALAAKVAAELYWQGTVIPSEIMIREVK | not soluble
MSLTVSPLSGSLTPIGSEVKRGAELAVQEQAAAFKALGYDLVLTPYDDQASATLAPQIARTIVADKNVLGVVGALNSSVSNVIAQAFGPAKLAMISPASTGDQLTQNGWNHFSRVVAPDSAQGVAAADYIAEELKAGSVVVISDNTAYGNGLTRVLMANLKKRKVPVAAYMGASTPAQIAEAVKRVKASSADVVYFGGTDDTGSQLVKALRAAGVTATFMGGDGLDSPSFLQRAGIAGAGVVYSTVFGPVSAFSNALDFSDRYRAAYKTKPSGVAVYAYDATNTLLSAIKAAAGNSRTLPTRAEVSAAVRKVNLPACFSADKSRCATITGAIAFSDSGERLRSRVMIMRFDDVLQPQVAKVQTVNAESLKEGHHHHHH | soluble
MGSDKIHHHHHHMRRCPLCTSEETAPFYQDRKRCIYRCKRCMLLFADANSHLPPSAEVKRYRSANSKDKPLQQFLSSLITQCEQQVQGPLLGLNFGRLLNPQAIDAIKARGHQLNQYDPHFAPDHTLLRLEYDFICCYRVFEHFRFPGKEWQLLCSLLKPGGWMAISTQLLTELQGFPKWHHKNNLTHVSFYQQATFQYLASQAEFRLLFASKDLILVQKPTGSGITRDPSSLI | not soluble
MASCHEPSAFKSLCAHPSTLTATFDVSPYSSAFHLPIHPALLSNTHLLHLNTYNPTTYESTERLFEQNNNNSEKAESCSSRDSSHDSSSPTSTGGSSRDNVIVRNELKRKKDQVKDVAYWERRRKNNDAAKRSRDQRRMKEDEMAHRATSLERENMLLRVELDQLRAETDKLRALILTTPTTSISIPIPLQSLPLLTAQTAPASSVITTSQMYAPLPLKIPKTPSPSLLRSTVLVSNSSKT | not soluble
MTATHDTIRLAEIAAKAAAEKLATNIAVIDVSDVMAISEVFVLASADNERQVRSIVEEIEDMLTAEGEEPKRREGNRENRWVLLDYGMLVIHVQRNTERDFYGLDRLYQDCPLIEVEGIDTMARPEEWAQDVDVRTVESLDEIPLAGEEPADEEF | not soluble
MESKEERALNNLIVENVNQENDEKDEKEQVANKGEPLALPLNVSEYCVPRGNRRRFRVRQPILQYRWDIMHRLGEPQARMREENMERIGEEVRQLMEKLREKQLSHSLRAVSTDPPHHDHHDEFCLMP | soluble
MKELKQAEQIRTWVQSILTDESSGHDWHHVSRVADLAAYIGEKEKADLFIVETAALVHDLIDVKLPDTVRLSVSEVYDQLVFFGVGKENADRVIHIITRMSFRDRGKLAKEPLSIEGKAVQDADRLDAIGAVGIARAFMFAGAKGHGLYGDEQSAYAHFFHKLLRLKDMMNTDTARELAEERHNFMLQFVRQLEKDIPGIDAETS | not soluble
SNANAEPAVKAESAGKSVAASLKARLEKTYSAQDLKVLSVSETPVKGIYEVVVSGRQIIYTDAEGGYMFVGELINIDTRKNLTEERAADLNKIDFASLPLDKAIKEVRGNGKLKVAVFSDPDCPFCKRLEHEFEK | not soluble
MGSDKIHHHHHHMVTKTKTRLGNQRPTQSVTLHYVESLAHEAIELYQKTGRNCYPWQVNLLENIMGIDNNGLWVHQKYGYAIPRRNGKTEDVYILELWALHHGLRILHTAHRISTSHSSFEALKKLLEDMGYVEDVDFVSNKAKGQERIEFKSTGSVIQYRTRTSNGGLGEGFDLLIIDEAQEYTVEQESALKYTVTDSDNPMTVMCGTPPTMVSTGTVFTNFRTKVLAGKSEYSGWSEWSVEDIKDVNDIDSWYLTNPSLGYHLTERKIKAEIGDDELDHNIQRLGYWPSFNQKSAISENEWKRLKVDDVPELSGKLFVGIKYGQDGSNVSMSIAARTIDKKIFIEVIDCQSVRNGMQWIINFLQTADIEKVVVDGANGQTLLANEMKDFKLREPIMPTVSEIITANSVWEQAIVQETLRHANQPSLTEVVTNCDKRNIGSNGGFGYKSLYDDRDISLMDSALLAHWVCYMTKPKRKQRISY | not soluble
MKGIIFTEFMELVESKFGLEVLDQVLELSDDEGVYTSVGSYDHRDLVKLIVNLSKVSDIPPEQLQEVFGESVFLNLLRSIPSHASLQQCDNTFQFVRHVESFIHVEVKKLYPDANPPKFDFISETQSELVFDYHSARCMAHVCLGLLKGCAAHFGQVIHIMHQNQTEDGSQVRFWLEAQLEHHHHHH | not soluble
MGSSHHHHHHGGTGENLYFQGGSGSNRKKVAYFHDPDIGSYYYGAGHPMKPQRIRMTHSLIVSYNLYKYMEVYRPHKSDVNELTLFHDYEYIDFLSSISLENYREFTYQLKRFNVGEATDCPVFDGLFQFQQSCAGASIDGASKLNHHCADICVNWSGGLHHAKMSEASGFCYINDIVLGILELLKYHARVMYIDIDVHHGDGVEEAFYVTHRVMTVSFHKFGDYFPGTGDITDVGVNHGKYYSVNVPLNDGMTDDAFVDLFKVVIDKCVQTYRPGAIIIQCGADSLTGDRLGRFNLTIKGHARCVEHVRSYNIPLLVLGGGGYTIRNVSRCWAYETGVVLNKHHEMPDQISLNDYYDYYAPDFQLHLQPSNIPNYNSPEHLSRIKMKIAENLRHIEHAPGVQFSYVPPDFFNSDIDDESDKNQYELKDDSGGGRAPGTRAKEHSTTHHLRRKNYDDDFFDLSDRDQSIVPY | not soluble
MGSDKIHHHHHHMKIKHIFTDMDGTLLDSHGSVSDTNHWSIYYSDLPITLVSARSPLEMSNIVEKLQLRTPQIAFNGNLTFTQNQFGLQIIDKNPLASETVSQLLNYISTEFPNVSLNWYSLAHWYINKQDKGTFIQKAITGIEPKIKTFDGQSEIYKIMMIVFDSQELLQLQAQLNNLNIPNISVQQSGQWYLEITSDNKTKADAVQSILDNKNLDFQEIAAIGDGHNDIPLLQSAGLAIAVDNANSEVKKHVKMVVAKNTEHGVAEAISAINTINEQVI | not soluble
MLQDHKITFLGAGSMAESIIAGLLSKKLLLPSQVIATNLCDEAKLTKLEDRYGICTTQNRQEAVRQGTIIFLAMKPKNIEEAIEEIRGEITEKQLFISVLAGTTTSYIETLLAHEVPVVRTMPNTSAKVGASATGLCGGRYANASHVKLATLIFTAIGTVTEVTEDKLDAVTGLAGSGPAYFYYMVEAMERAAVQSGLTESEAKAFISQTLIGTGKRLEQTSKTAEELYKEVMSPGGTTEAGLRVLEQQQMQQAIEEAITAAINRSRELGSTPSLEIKKLEHHHHHH | soluble
MGSDKIHHHHHHMINLNGNSSSSRQVTFITHPSIQSKAFASYLSETLMAPVVLQNINKPLAQRLAKDSVILFDIAVSNKKLNGVWRDIIRLQADNPRLLIINSAQKYELYEMAQWPALYGVFRHDDDESRLIEGVKAVLNGEQTAELSVMHPAMYAADHASTPVENSPLTERECEILNELRCGATNLDIARALFISENTVRTHLYNVFRKLSVKNRTQAVSWANEHLRH | not soluble
MSLGYQYDTLIYNVRIASMQDNKLPYGELPPHAIAIKDGKIAALLPCDDSLDDVFEQAKSVIDATTLIPQNEGSTPKPPWLLPGFIDCHTHLVYGGNRAEEFEMRLQGASYVDIAQRGGGIKGTVEKTRCSDENTLLHTAIKRAKRLCEEGVTTIEVKSGYGLDLDTEVRMLRVAKSLEQHLPVSIKTTYLGAHALPNEFADDSEGYIDFICNEALPHIASQNLADAVDVFCETIGFSTSQTERVFSCAQQHGLPIKAHVEQLSDSKGAVLAAKYGALSVDHIEYLADSDIPLLAQSGTVAVLLPGAFYYLSEVQKPPVDALRAHNVPMALATDFNPGSSPLASILTAINMGCVLFQLTPEEALRGATAHAASALGLHDRGVIEAGKLADLTLWDIETPAELAYCINGHRPIAVFKEGKHVEGHHHHHH | soluble
MTKLTIFYDGTCPLCAKEMKALRQHDHKQEINTVDIYSDAFSAYPQINPDRANTILHALDNQGNLLLGLDVTYRAWQLVGRGWLYAPLRWPLIRPVADWLYLRFAQNRYRISYWLTGTSRCNSGRCSR | not soluble
MNKTIIAERFSKAISTYPREANVQRQIANKMIRLLQKHIPSPCPKVIEFGCGTGIYSRMLLRTLRPEELLLNDLCPEMRYCCEDLLREKQVSFLSGDAETISFPDKSTLITSCSALQWFDSPEEFFKRCNTLLHSQGYFAFSTFGKKNMKEIRELTGKGLPYRSREELEAALSLHFDILYSEEELIPLSFEDPMKVLYHLKQTGVNGLSAQSSLYPKHEKQTWTRRDLQHFCERYTQEFTQGTSVSLTYHPIYIIAKKKKV | soluble
EIRLSNTQQTYAFLKKRLRDYKNETFAALFLDNQHRIIAYEELFSGTINTATVYPRPIVERVLQLNAAALILAHNHPSGLSDASQQDLAITERIRDALDLVDARLLDHIVIGDNEVYSIFAENKWVCN | not soluble
MRYSLKQLAVFDAVADCGSVSQAADKLALTQSATSMSLAQLEKMLGRPLFERQGKQMALTHWGMWLRPKAKRLLQDAQQIEMGFYDQHLLSGEIRLGASQTPAEHLVPDLISIIDSDFPEIRISLGVKSTKGVIEGVLDYKYDLGIIEGRCDDNRIYQEVWCRDHLTIVASAHHPFAKRESVSLAQLEQAKWVLREQGAGTRNIFDSVIHPLIPDLDVWREYEHVPVLRTLVANGPYLTCLPYLDVERFIESGLLVALNVPELNMERTLSFIWRADMEENPLAECIKREGLRMMKGKPSIL | not soluble
MNSEQIYHVDFKQSKRIKSFHYAGGLFQLTSDGVIFVGKDKDNNELPPRWICSSLSVVAKTRDANSGEWGRLLEWVDDDGIKHQWAMPLALLQGDSSDVRRELARLGLTISPSKTARDLLASYIQVFPVEERARCVDKLGWYKEVFVTANEAIGQSLSVAGSVEDWRNSISRLADGNSRLVFAISAAFAPSLANLVGEDSGGFHFRGASSSGKTTALKVAASVWGKPDSYIRLWRSTANGLEGLAALHNDGLLILNELSQMDPKEAGECAYLLANGQGKTRASRCGTARQSMRWSLLFLSAGEESLTSLMAKAGQRCNAGQEIRLADIEADAGAEMGLFEQLHDHINPAAMSLALKEAASQYHGAVGLAWLHKIVKHRAELIALLTNKIQHFVAKVTKPEHSGQIQRVARRFALVAMAGEIATHYELTGWTRGTACNPAEKCFNAWLKDFGEHGNREDRAILSQVRAFFEKEGASRFENENHPNSERLFNRAGFFHTDSEGFRVFMVLSEVYRKEICQGFEPKMVNKVLINAGWIVPGNDGKASQKRRIKGIGIPRCYIFTEKVWSDDYLEHHHHHH | soluble
GAMGPREVTMKKGDILTLLNSTNKDWWKVEVNDRQGFVPAAYVKKLDSGTGKELVLALYDYQESGDNAPSYSPPPPP | soluble
SNAMNVNQIVRIIPTLKANNRKLNETFYIETLGMKALLEESAFLSLGDQTGLEKLVLEEAPSMRTRKVEGRKKLARLIVKVENPLEIEGILSKTDSIHRLYKGQNGYAFEIFSPEDDLILIHAEDDIASLVEVGEKPEFQTDLASISLSKFEISMELHLPTDIESFLESSEIGASLDFIPAQGQDLTVDNTVTWDLSMLKFLVNELDIASLRQKFESTEYFIPKSEKFFLGKDRNNVELWFEEV | soluble
MAHHHHHHMDSQTPHGDVVDEATMAVLPEHGLIFSEIKQMQLLLCKPKLLPVKSYSLEKLEKMEKKLAREAKEKRDANRAQRQAPLVWTSPDLTAGEGVKTIPAPSPLVTVAPAPPQNVASTPLRDGGATPPSAAPAVASSASSRGAASQETLSFTPVHTEGETCADASMSAPERSPRISPSTDVSSSSPSPSASTTD | soluble
